Measured values as given in US11702666B2, “Cell-based assay for determining activity in the retinoblastoma pathway” (Medical Diagnostic Laboratories, LLC, priority 2017, dated 2023).
Like-named read-outs stand apart in the source and are kept apart here.

Legend:
Rb/E2F1-Dp-1 complex [1] = test: CDK6 mutant activity / drug resistance in NanoBiT assay, stable cell line #11; assay type: cell-based, human; conditions: CDK6 mutants
Description: A linear expression cassette of mutated CDK4 or CDK6 was generated by PCR mediated overlapping extension method. A pair of forward and reverse primers containing the targeted mutations was designed. The mutated codon was located in the middle of a primer flanked by 18-21 nucleotides on each side. Two PCRs (named as PCR #1 and PCR #2 in FIG. 1) were performed using UF-CMV forward and mutated reverse primers, or mutated forward and BGH-UR primers. The PCR products were cleaned up by ExoSAP-IT® (Affymetrix) to remove unconsumed dNTPs and primers. The treated PCR products were mixed together followed by dilution with water. A second round of PCR was performed using the diluted PCR mixture, and the UF and UR primers (FIG. 1). The amplified products were gel-purified. The DNA concentration was quantitated by the optical density at 260 nm using Nanodrop. The targeted mutations were incorporated in the CDK4 or CDK6 genes during the PCR mediated overlapping extension method. The introduced mutations were confirmed by the DNA sequencing.
To examine the ability of the assay to detect variants in CDK4 or CDK6 that affect function, kinase dead mutants and COSMIC (Catalogue Of Somatic Mutations in cancer) unknown mutants were created. For comparison, hyperactive CDK4 or CDK6 mutants known to be hyperactive due to less binding to natural inhibitor p16 were also created. The mutations in CDK4 or CDK6 were created by site-directed mutagenesis. WT or mutated CDK4 or CDK6 along with the CyclinD1 and SB-Rb were co-transfected, under similar conditions as previously indicated (see FIG. 9).
Computer modeling was used to reveal the drug-binding pocket and predict drug-resistant mutants. The mutations in CDK4 and CDK6 were created by site-directed mutagenesis. WT or mutated CDK4 or CDK6 along with the CyclinD1 and SB-Rb was co-transfected into #11 cell line, under the same conditions as previously indicated. […] Dose response curves are presented on FIG. 13A and FIG. 13B. Activity of other mutants was very similar to the WT or KD.
CDK4 and CDK6 mutants with known function and unknown function taken from the COSMIC database were analyzed in the present assay and are summarized in Table 7A and Table 7B. The mutants were classified according to their activity. Table 7A and Table 7B also show the number of counts per mutant in the COSMIC database, type of cancer, and luciferase activity compared to the WT (being 100%).

Rb/E2F1-Dp-1 complex [2] = conditions: CDK6 mutants, literature ref.; Hyper = hyperactive, KD = kinase dead; cited from earlier work
CDK6 [3] = target: T1, CDK6 (Homo sapiens, UniProt Q00534, R31C); test: p16 activity assay with CDK6 (NanoBiT, cell line #11); assay type: cell-based; conditions: compared to WT CDK6
T1 construct: expressed in transfected cells; host or cells: HEK293 CDK4/CDK6 double-knockout cells stably expressing E2F1-Dp-1-LB (clone #11); early experiments in plain HEK293
T1 sequence (Q00534 whole entry R31C): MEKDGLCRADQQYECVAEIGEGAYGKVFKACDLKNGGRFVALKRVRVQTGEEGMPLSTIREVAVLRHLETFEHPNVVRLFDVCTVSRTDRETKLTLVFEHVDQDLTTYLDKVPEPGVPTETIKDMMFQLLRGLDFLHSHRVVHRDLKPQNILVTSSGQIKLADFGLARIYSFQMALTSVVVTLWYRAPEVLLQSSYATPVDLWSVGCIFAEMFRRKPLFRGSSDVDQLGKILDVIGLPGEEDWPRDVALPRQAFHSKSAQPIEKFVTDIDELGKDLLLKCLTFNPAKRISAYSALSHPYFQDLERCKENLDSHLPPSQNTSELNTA
Excerpt: (§1) We developed an assay that could measure the interaction between Rb, E2F1 and Dp-1. When the Rb and E2F1 proteins are in close proximity or in complex, a light signal is observed. For the purpose of the assay, split-luciferase complementation was used to measure the interaction between Rb and E2F1, which served as a surrogate measure of CDK4/6 activity and the ability of CDK4/6 to respond to the natural inhibitor p16. The NanoBiT assay system by Promega (Madison, Wis.; Dixon et al., 2015, ACS ChemBiol) was used in the split luciferase complementation design. FIG. 24 depicts a design of a signal system to measure p16 activity. Under basal conditions inside the cell, Rb is active and interacts with the E2F1/Dp-1 heterodimer. However, in the presence of the CDK4 or CDK6, Rb gets phosphorylated and released from the interacting complex. In the presence of the natural inhibitor p16, CDK4/6 is no longer available to phosphorylate Rb and thus promoting the Rb/E2F1-Dp-1 complex formation.
(§2) For the purpose of the current assay, the stable cell line #11 that we generated for the CDK activity assay was used and described above. HEK293 CDK DKO cells containing E2F1-Dp-1-LB was transiently transfected with CDK4/CDK6, CyclinD1, and SB-Rb. The transfected cells were then exposed to the natural inhibitor p16 (FIG. 25). […]

CDK6 [4] = target: T2, CDK6 (Homo sapiens, UniProt Q00534); test: as above; assay type: cell-based; conditions: CDK6, CyclinD1, SB-Rb transfected cell line #11
T2 construct: expressed in transfected cells; host or cells: HEK293 CDK4/CDK6 double-knockout cells stably expressing E2F1-Dp-1-LB (clone #11); early experiments in plain HEK293
T2 sequence (Q00534 whole entry): as the sequence (Q00534 whole entry R31C) above, with C31R counted along it
Excerpt: as §1, §2

CDK4 [5] = target: T3, CDK4 (Homo sapiens, UniProt P11802); test: p16 activity assay with CDK4 (NanoBiT, cell line #11); assay type: cell-based; conditions: CDK4, CyclinD1, SB-Rb transfected cell line #11
T3 construct: expressed in transfected cells; host or cells: HEK293 CDK4/CDK6 double-knockout cells stably expressing E2F1-Dp-1-LB (clone #11); early experiments in plain HEK293
T3 sequence (P11802 2-303): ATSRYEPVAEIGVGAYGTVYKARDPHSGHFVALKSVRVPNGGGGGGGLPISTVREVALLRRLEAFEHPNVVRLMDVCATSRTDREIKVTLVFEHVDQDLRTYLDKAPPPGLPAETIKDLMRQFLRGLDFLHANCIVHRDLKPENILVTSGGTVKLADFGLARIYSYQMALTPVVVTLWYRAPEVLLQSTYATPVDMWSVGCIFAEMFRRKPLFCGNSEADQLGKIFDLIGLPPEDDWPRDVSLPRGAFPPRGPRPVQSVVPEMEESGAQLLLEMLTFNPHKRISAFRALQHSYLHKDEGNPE
Excerpt: as §1
(§3) For the purpose of the current assay, the stable cell line #11 that we generated for the CDK activity assay was used and described above. HEK293 CDK DKO cells containing E2F1-Dp-1-LB was transiently transfected with CDK4/CDK6, CyclinD1, and SB-Rb. The transfected cells were then exposed to the natural inhibitor p16 (FIG. 25). When CDK4 or CDK6 is present, a decrease in activity was observed as Rb gets phosphorylated resulting in no Rb/E2F1-Dp-1 interaction. […] The data presented was a sample experiment where each condition was performed in triplicate and represented mean+SD.
(§4) The conditions of the assay were optimized by using different p16 amounts and cell numbers (FIGS. 25A and 25B). Based on the data generated, it was decided that using 0.2×10^6 cells/ml and 10 ng of p16 would be preferable.
(§5) To examine the ability of the assay to detect variants in CDKN2A that affect function, known loss of function mutants and unknown COSMIC mutants were created. Wild-type or mutated CDKN2A were prepared in a manner similar to that previously indicated. […] Therefore the p16 activity assay is capable of determining the relative activity level of p16 mutants. The data provided is in Luminescence (RLU) of a single experiment with each condition performed in triplicate and represent average+SD. Summary Table 13 reports p16 mutants tested.
(§6) In addition to check functional state of p16 mutants, p16 activity assay can be used to look at p16 inhibition response of different CDK4 and CDK6 mutants. Different response of WT CDK4 and CDK6 and hyperactive mutants of CDK4 (R24A) and CDK6 (R31C) is shown on FIG. 28. […] The p16 activity assay is so sensitive and specific that hyperactive CDK4 and CDK6 mutants can show different response to mutant p16.

Rb/E2F1-Dp-1 complex [6] = conditions: CDK4 mutants, literature ref.; Hyper = hyperactive, KD = kinase dead; cited from earlier work
Rb/E2F1-Dp-1 complex [7] = test: CDK4 mutant activity / drug resistance in NanoBiT assay, stable cell line #11; assay type: cell-based, human; conditions: CDK4 mutants, compared to the WT (being 100%)
Procedure, shortened: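 Wild-type or mutant CDK4/CDK6, made by overlap-extension PCR site-directed mutagenesis and sequence-confirmed, was co-transfected with CyclinD1 and SB-Rb into stable NanoBiT line #11. Loss of Rb phosphorylation raises luminescence; activity expressed as luciferase signal relative to WT (100%), with drug dose-response curves for predicted resistance mutants.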

CDK4 [8] = target: T4, CDK4 (Homo sapiens, UniProt P11802, R24A); test: p16 activity assay with CDK4 (NanoBiT, cell line #11); assay type: cell-based; conditions: compared to WT CDK4
T4 construct: expressed in transfected cells; host or cells: HEK293 CDK4/CDK6 double-knockout cells stably expressing E2F1-Dp-1-LB (clone #11); early experiments in plain HEK293
Excerpt: as §1, §3, §4, §5, §6

CDK6 R31C: CDK6 mutant, literature hyperactive
Luc activity (/wt) (Rb/E2F1-Dp-1 complex [1]; compared to the WT (being 100%)): 66% | luciferase signal compared to WT CDK6 (in words) (Rb/E2F1-Dp-1 complex [1]; no drug): a little bit lower basal signal than WT | Reported activity (Rb/E2F1-Dp-1 complex [2]): Hyper | p16 inhibition response of hyperactive CDK6 mutant (luminescence) (CDK6 [3]): decreased level of luminescence

p16: cyclin-dependent kinase inhibitor 2A, natural inhibitor of CDK4 and CDK6, encoded by CDKN2A
luminescence with treatment of p16 (CDK6 [4]): increase in luminescence | luminescence with treatment of p16 (CDK4 [5]): increase in luminescence

B1: CDK4 R24A: CDK4 mutant, literature hyperactive (protein)
chain: ATSRYEPVAEIGVGAYGTVYKAADPHSGHFVALKSVRVPNGGGGGGGLPISTVREVALLRRLEAFEHPNVVRLMDVCATSRTDREIKVTLVFEHVDQDLRTYLDKAPPPGLPAETIKDLMRQFLRGLDFLHANCIVHRDLKPENILVTSGGTVKLADFGLARIYSYQMALTPVVVTLWYRAPEVLLQSTYATPVDMWSVGCIFAEMFRRKPLFCGNSEADQLGKIFDLIGLPPEDDWPRDVSLPRGAFPPRGPRPVQSVVPEMEESGAQLLLEMLTFNPHKRISAFRALQHSYLHKDEGNPE
Reported activity (Rb/E2F1-Dp-1 complex [6]): Hyper | Luc. activity (/wt) (Rb/E2F1-Dp-1 complex [7]): 79% | p16 inhibition response of hyperactive CDK4 mutant (luminescence) (CDK4 [8]): decreased level of luminescence
